Holding throughout (test): SEC; SEC-HPLC of purified individual His6-tagged BMC-H (urea-purified fractions; EutM, CmcB and EutK also from the soluble fraction), Beckman Ultraspherogel SEC2000, 20 mM Tris-HCl, 300 mM NaCl, pH 7; size from calibration standards
A general note: SEC sorts molecules by how far they enter the pores of the column.

For data set [1], the target named is EutM, His6-tagged (Klebsiella pneumoniae (strain 342)).
Data set [2] deals with CmcE, C-terminally His6-tagged (Klebsiella pneumoniae (strain 342)).
The target in data set [3] is CmcB, His6-tagged (Klebsiella pneumoniae (strain 342)).
Data set [4] addresses CmcA, His6-tagged (Klebsiella pneumoniae (strain 342)).
Data set [5] concerns the target EutS, His6-tagged (Klebsiella pneumoniae (strain 342)).
For data set [6], the target named is CmcE, N-terminally His6-tagged (Klebsiella pneumoniae (strain 342)).
The target in data set [7] is PduU, N-terminally His6-tagged (Klebsiella pneumoniae (strain 342)) (UniProt A6TDE7).
Data set [8] addresses CmcC, His6-tagged (Klebsiella pneumoniae (strain 342)).
Data set [9] concerns the molecule itself.

On to “EutM, His6-tagged (from UniProt A0A377ZA59 1-64) (natural protein)”, for which, in data set [1], the stoichiometry N – broadly, a count of units in the complex or per binding partner – worked out at 6.
In data set [2], “CmcE, C-terminally His6-tagged (natural protein)” gave a stoichiometry N of 6.
On to CmcB, His6-tagged (natural protein), for which the stoichiometry N in data set [3] worked out at 6.
For the molecule CmcA, His6-tagged (natural protein), the stoichiometry N in [4] is 6.
On to EutS, His6-tagged (natural protein), for which the stoichiometry N in data set [5] worked out at 6.
“CmcE, N-terminally His6-tagged (natural protein)” yielded a stoichiometry N in data set [6] of 6.
“PduU, N-terminally His6-tagged (from UniProt A6TDE7 1-116) (natural protein)” gave a stoichiometry N in data set [7] of 6.
In [8], CmcC, His6-tagged (natural protein) showed a stoichiometry N of 6.

B1: PduA, His6-tagged (natural protein, Klebsiella pneumoniae (strain 342), UniProt A0ACD7U6D6 1-94, looked up)
chain: MQQEALGMVETKGLTAAIEAADAMVKSANVLLVGYERIGSGLVTVIVRGDVGAVKAATDAGAAAARHVGEVKAVHVIPRPHTDVEKILPKGNSQ
notes: PduA, canonical BMC-H shell protein of the PDU microcompartment; theoretical monomer MW 9.8 kDa; source: also co-expressed with a FLAG-tagged partner, in soluble lysate fraction and co-purified; not shown: His6, C-terminal, kept
For B1, the “stoichiometry N” value in data set [9] stood at 6.

B2: PduJ, His6-tagged (natural protein, Klebsiella pneumoniae (strain 342), UniProt A6TDD7 1-91, looked up)
chain: MNNALGLVETKGLVGAIEAADAMVKSANVQLIGYEKIGSGLITVMVRGDVGAVKAAVDAGSAAASVVGEVKSSHVIPRPHSDVEAILPKSV
notes: PduJ, canonical BMC-H shell protein of the PDU microcompartment; theoretical monomer MW 9.2 kDa; not shown: His6, C-terminal, kept
Regarding B2, the “stoichiometry N” value in data set [9] is 6.

(Values after article PMC12058022, “Promiscuous structural cross-compatibilities between major shell components of Klebsiella pneumoniae bacterial microcompartments” (PLOS One, 2025).)
